Measured values from the supplement of paper PMC9116672.
± gives the standard deviation of the averaged measurements or the uncertainty stated by the source.

Experiments:
[1] = duplex formation entropy ΔS (Van't Hoff fit of HRM Tm); higher = smaller entropy loss on duplex formation; conditions: temperature for dG: 50 °C, NaCl: 500 mM (unadjusted)
Procedure: (§1)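 Duplex of the listed DNA strand with its complement, in 1x NNE buffer (500 mM NaCl, pH 7.0) with 1x EvaGreen. ΔH and ΔS come from a Van't Hoff linear fit of 1/Tm against ln(CT/4) over 1-20 uM, using HRM Tm values.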

[2] = duplex formation free energy ΔG50 (Van't Hoff fit of HRM Tm); higher = less stable duplex; conditions: temperature for dG: 50 °C, NaCl: 500 mM (unadjusted)
Procedure: as §1

[3] = duplex formation enthalpy ΔH (Van't Hoff fit of HRM Tm); higher = less exothermic duplex formation; conditions: temperature for dG: 50 °C, NaCl: 500 mM (unadjusted)
Procedure: as §1

[4] = duplex melting temperature (HRM, EvaGreen); higher = more stable duplex
Procedure: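 Listed DNA strand annealed 1:1 with its complementary strand (95 °C 5 min, 0.1 °C/s to 20 °C). Melted in 1x NNE buffer (500 mM NaCl, 10 mM Na2HPO4, 1 mM EDTA, pH 7.0) with 1x EvaGreen on a LightCycler96 (37 to 97 °C, 0.1 °C/s). Tm is the peak of -dF/dT at the stated total duplex concentration; 4 replicates are averaged. PS oligos are non-stereospecific (Rp/Sp mixtures).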

[5] = backbone: PO-PO (both strands phosphodiester DNA)
[6] = backbone: PS-PO (listed strand fully phosphorothioate, complement phosphodiester)
[7] = backbone: PS-PS (both strands fully phosphorothioate)
[8] = duplex concentration 1 µM, backbone: PO-PO (both strands phosphodiester DNA)
[9] = duplex concentration 1 µM, backbone: PS-PO (listed strand fully phosphorothioate, complement phosphodiester)
[10] = duplex concentration 1 µM, backbone: PS-PS (both strands fully phosphorothioate)
[11] = duplex concentration 2.5 µM, backbone: PO-PO (both strands phosphodiester DNA)
[12] = duplex concentration 2.5 µM, backbone: PS-PO (listed strand fully phosphorothioate, complement phosphodiester)
[13] = duplex concentration 2.5 µM, backbone: PS-PS (both strands fully phosphorothioate)
[14] = duplex concentration 5 µM, backbone: PO-PO (both strands phosphodiester DNA)
[15] = duplex concentration 5 µM, backbone: PS-PO (listed strand fully phosphorothioate, complement phosphodiester)
[16] = duplex concentration 5 µM, backbone: PS-PS (both strands fully phosphorothioate)
[17] = duplex concentration 7.5 µM, backbone: PO-PO (both strands phosphodiester DNA)
[18] = duplex concentration 7.5 µM, backbone: PS-PO (listed strand fully phosphorothioate, complement phosphodiester)
[19] = duplex concentration 7.5 µM, backbone: PS-PS (both strands fully phosphorothioate)
[20] = duplex concentration 10 µM, backbone: PO-PO (both strands phosphodiester DNA)
[21] = duplex concentration 10 µM, backbone: PS-PO (listed strand fully phosphorothioate, complement phosphodiester)
[22] = duplex concentration 10 µM, backbone: PS-PS (both strands fully phosphorothioate)
[23] = duplex concentration 15 µM, backbone: PO-PO (both strands phosphodiester DNA)
[24] = duplex concentration 15 µM, backbone: PS-PO (listed strand fully phosphorothioate, complement phosphodiester)
[25] = duplex concentration 15 µM, backbone: PS-PS (both strands fully phosphorothioate)
[26] = duplex concentration 20 µM, backbone: PO-PO (both strands phosphodiester DNA)
[27] = duplex concentration 20 µM, backbone: PS-PO (listed strand fully phosphorothioate, complement phosphodiester)
[28] = duplex concentration 20 µM, backbone: PS-PS (both strands fully phosphorothioate)

Sequence	duplex formation entropy ΔS [1, 5] [cal/mol/K]	duplex formation entropy ΔS [1, 6] [cal/mol/K]	duplex formation entropy ΔS [1, 7] [cal/mol/K]	duplex formation free energy ΔG50 [2, 5] [kcal/mol]	duplex formation free energy ΔG50 [2, 6] [kcal/mol]	duplex formation free energy ΔG50 [2, 7] [kcal/mol]	duplex formation enthalpy ΔH [3, 5] [kcal/mol]	duplex formation enthalpy ΔH [3, 6] [kcal/mol]	duplex formation enthalpy ΔH [3, 7] [kcal/mol]	duplex melting temperature [4, 8] [°C]	duplex melting temperature [4, 9] [°C]	duplex melting temperature [4, 10] [°C]	duplex melting temperature [4, 11] [°C]	duplex melting temperature [4, 12] [°C]	duplex melting temperature [4, 13] [°C]	duplex melting temperature [4, 14] [°C]	duplex melting temperature [4, 15] [°C]	duplex melting temperature [4, 16] [°C]	duplex melting temperature [4, 17] [°C]	duplex melting temperature [4, 18] [°C]	duplex melting temperature [4, 19] [°C]	duplex melting temperature [4, 20] [°C]	duplex melting temperature [4, 21] [°C]	duplex melting temperature [4, 22] [°C]	duplex melting temperature [4, 23] [°C]	duplex melting temperature [4, 24] [°C]	duplex melting temperature [4, 25] [°C]	duplex melting temperature [4, 26] [°C]	duplex melting temperature [4, 27] [°C]	duplex melting temperature [4, 28] [°C]
AATGTCGAACAGCAATT	-192 ± 8	-195 ± 5.2	-169 ± 7	-12.5 ± 0.15	-11.23 ± 0.064	-9.264 ± 0.033	-74.4 ± 2.7	-74.3 ± 1.7	-63.7 ± 2.3	63.06 ± 0.22	56.56 ± 0.11	47.17 ± 0.34	65.17 ± 0.47	59.08 ± 0.19	50.7 ± 0.2	67.17 ± 0.36	61.32 ± 0.12	53 ± 0.2	68.45 ± 0.29	62.61 ± 0.066	54.22 ± 0.19	69.46 ± 0.13	63.46 ± 0.16	54.99 ± 0.23	70.74 ± 0.12	64.55 ± 0.19	56.34 ± 0.18	71.86 ± 0.12	65.45 ± 0.21	57.25 ± 0.45
CTAAACTGTTATAGCCGG	-219 ± 24	-205 ± 9.7	-166 ± 7.6	-13.2 ± 0.46	-11.2 ± 0.12	-8.979 ± 0.029	-83.8 ± 8.2	-77.5 ± 3.3	-62.5 ± 2.5			46.18 ± 0.36	66.43 ± 0.32	58.77 ± 0.43	48.97 ± 0.4	67.83 ± 0.25	60.28 ± 0.38	51.09 ± 0.26	68.83 ± 0.28	61.66 ± 0.5	52.63 ± 0.18	70.13 ± 0.37	62.55 ± 0.4	53.4 ± 0.36	71.19 ± 0.13	63.71 ± 0.22	55.1 ± 0.25	72.08 ± 0.077	64.43 ± 0.18	56.27 ± 0.23
ATAACTTACTCTCGCCT	-201 ± 16	-190 ± 4	-172 ± 6.5	-12.7 ± 0.29	-10.65 ± 0.042	-9.287 ± 0.031	-77.8 ± 5.4	-71.9 ± 1.4	-64.9 ± 2.1	63.6 ± 0.52	53.9	47.36 ± 0.27	65.26 ± 0.45	56.75 ± 0.23	50.73 ± 0.41	67.07 ± 0.61	59 ± 0.16	53.03 ± 0.18	68.39 ± 0.58	60.21 ± 0.15	54.3 ± 0.082	69.34 ± 0.46	61.01 ± 0.18	55.17 ± 0.085	70.85 ± 0.28	62.23 ± 0.12	56.32 ± 0.24	72.01 ± 0.25	63.109 ± 0.04	57.138 ± 0.039
CCGTTGCTGCTAGG	-172 ± 13	-180 ± 23	-97.4 ± 7.7	-12.3 ± 0.25	-11.1 ± 0.33	-9.23 ± 0.051	-67.8 ± 4.5	-69.4 ± 7.8	-40.7 ± 2.5			45.8 ± 0.71	65.75 ± 0.21	59.6	49.3 ± 1.4	68 ± 0.31	61.1 ± 1	53.433 ± 0.0017	69.13 ± 0.18	63.1 ± 0.69	56	70.55 ± 0.22	63.92 ± 0.4	57.4	71.88 ± 0.22	65.35 ± 0.083	60.5	72.82 ± 0.098	65.77 ± 0.2	61.75 ± 0.28
CGGTGCTTTTGGTAGC	-204 ± 15	-200 ± 4.7	-184 ± 7.3	-13 ± 0.28	-11.01 ± 0.054	-9.497 ± 0.038	-78.9 ± 5	-75.7 ± 1.6	-69.1 ± 2.4	64.53 ± 0.35	55.5	48.49 ± 0.47	66.24 ± 0.63	57.98 ± 0.26	51.59 ± 0.36	68.2 ± 0.57	60.12 ± 0.16	53.89 ± 0.15	69.42 ± 0.55	61.35 ± 0.16	55.11 ± 0.14	70.49 ± 0.27	62.11 ± 0.17	55.86 ± 0.081	71.77 ± 0.14	63.256 ± 0.027	56.93 ± 0.08	72.89 ± 0.21	64.025 ± 0.015	57.7 ± 0.2
CGTGCAGCACTACTTG	-181 ± 7.5	-186 ± 5	-179 ± 11	-12.8 ± 0.17	-11.31 ± 0.067	-9.892 ± 0.075	-71.3 ± 2.6	-71.3 ± 1.7	-67.6 ± 3.5		56.81 ± 0.29	50.09 ± 0.18	67.58 ± 0.38	60.02 ± 0.13	53.82 ± 0.069	69.83 ± 0.28	62.35 ± 0.23	56.17 ± 0.085	71.17 ± 0.15	63.49 ± 0.13	57.1 ± 0.12	72.2 ± 0.18	64.33 ± 0.093	57.92 ± 0.08	73.4 ± 0.13	65.6 ± 0.099	59.07 ± 0.11	74.39 ± 0.17	66.47 ± 0.25	59.74 ± 0.13
TATTCTGCCAATGGAAC	-209 ± 6.6	-200 ± 6.1	-189 ± 6.7	-12.43 ± 0.11	-10.59 ± 0.059	-8.755 ± 0.02	-79.9 ± 2.2	-75.2 ± 2	-69.8 ± 2.2	61.28 ± 0.28	52.9	45.3 ± 0.74	63.72 ± 0.46	56.19 ± 0.12	48.29 ± 0.081	65.46 ± 0.21	58.32 ± 0.085	50.06 ± 0.16	66.751 ± 0.054	59.47 ± 0.085	51.303 ± 0.046	67.63 ± 0.082	60.21 ± 0.12	52.24 ± 0.13	68.883 ± 0.048	61.27 ± 0.062	53.39 ± 0.22	69.87 ± 0.1	62.27 ± 0.081	54.28 ± 0.14
TGCCATGTTGAAAACC	-207 ± 7.6	-203 ± 5.8	-203 ± 7.4	-12.4 ± 0.13	-10.63 ± 0.058	-8.447 ± 0.02	-79.2 ± 2.6	-76.1 ± 1.9	-74 ± 2.4	61.32 ± 0.21		44.3 ± 0.54	63.56 ± 0.48	56.23 ± 0.2	46.98 ± 0.17	65.51 ± 0.22	58.37 ± 0.066	48.71 ± 0.25	66.6 ± 0.21	59.53 ± 0.1	49.82 ± 0.18	67.59 ± 0.15	60.34 ± 0.13	50.73 ± 0.22	68.82 ± 0.18	61.44 ± 0.11	51.73 ± 0.34	69.71 ± 0.33	62.27 ± 0.073	52.86 ± 0.13
TTCTACATCCATCTTAATCCCA	-262 ± 21	-243 ± 15	-212 ± 6.8	-14.7 ± 0.46	-12 ± 0.2	-9.752 ± 0.037	-99.4 ± 7.2	-90.6 ± 5.1	-78.1 ± 2.2		59.7	49.9 ± 0.91	69.29 ± 0.65	60.3 ± 0.71	52.2 ± 0.78	70.58 ± 0.52	61.7 ± 1	54.2 ± 0.62	71.5 ± 0.27	63 ± 0.72	55.53 ± 0.29	72.3 ± 0.098	63.81 ± 0.27	56.28 ± 0.17	73.48 ± 0.21	64.85 ± 0.098	57.3 ± 0.083	74.36 ± 0.2	65.55 ± 0.094	57.98 ± 0.21
